Data: patent publication US20200181261A1 (Bayer, published 2020)

Legend:
[1] = target: T1, Macaca fascicularis (cynomolgus) CEACAM6, full-length, on transfected HeLa cells (Macaca fascicularis, GPI anchor at the C-terminus on the cell surface, not carried by the letters); experiment: FACS, transfected HeLa cells
T1 construct: also called TPP-4189; HeLa Cynomolgus CEACAM6
T1 chain: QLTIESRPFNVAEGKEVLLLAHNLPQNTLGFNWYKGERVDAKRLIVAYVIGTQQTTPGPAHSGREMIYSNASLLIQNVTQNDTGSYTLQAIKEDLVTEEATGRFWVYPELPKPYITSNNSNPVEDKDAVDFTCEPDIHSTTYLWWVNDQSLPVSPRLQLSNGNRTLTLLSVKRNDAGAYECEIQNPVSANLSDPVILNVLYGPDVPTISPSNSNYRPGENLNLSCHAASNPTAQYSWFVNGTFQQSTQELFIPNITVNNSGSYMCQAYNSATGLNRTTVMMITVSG
Method in brief: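 Antibody binding to transfected HeLa cells was measured by FACS on a Canto II or FACS Array instrument. For half maximal binding (EC₅₀), primary antibodies were titrated from 0.1 nM to 100 nM. Median fluorescence intensity was plotted against log concentration, and curves were fitted in Graph Pad prism. Cells had been released with EDTA dissociation buffer and stained at 4° C.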

[2] = target: T2, human CEACAM6, extracellular (mature form), R&D Systems 3934-CM (human, UniProt P40199 35-320); experiment: SPR, antibody captured, antigen as analyte
T2 construct: used biotinylated in some assays; also called TPP-1436; Recombinant human CEACAM6
T2 sequence: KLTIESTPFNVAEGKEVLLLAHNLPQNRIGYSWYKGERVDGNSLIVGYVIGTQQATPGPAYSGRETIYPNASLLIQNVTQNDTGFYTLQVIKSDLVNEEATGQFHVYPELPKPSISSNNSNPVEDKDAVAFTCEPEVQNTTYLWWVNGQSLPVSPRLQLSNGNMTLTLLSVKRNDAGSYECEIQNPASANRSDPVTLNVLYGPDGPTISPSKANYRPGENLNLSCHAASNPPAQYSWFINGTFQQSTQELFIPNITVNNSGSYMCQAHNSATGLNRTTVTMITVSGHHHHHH
Description: (§1) Surface plasmon resonance (SPR) experiments for quantitative binding analyses were performed either using a Biacore T100, Biacore T200 or a Biacore 4000 instrument (GE Healthcare Biacore, Inc.) equipped with Series S Sensor Chips CM5 (GE Healthcare Biacore, Inc.). Binding assays were carried out at 25° C. with assay buffer HBS-EP+(10 mM HEPES pH 7.4, 150 mM NaCl, 3 mM EDTA, 0.05% Surfactant P20). Antibodies were captured with an anti-hIgG capture antibody covalently immobilized to the chip surface via amine coupling chemistry. Reagents for amine coupling (1-ethyl-3-(3-dimethylaminopropyl) carbodiimide hydrochloride (EDC), N-hydroxysuccinimide (NHS), ethanolamine-HCl pH 8.5) were used from the Amine Coupling Kit (GE Healthcare, product code BR-1000-50). Anti-hIgG, anti-mIgG capture antibodies and immobilization buffer (10 mM sodium acetate pH 5.0) were used from the Human Antibody Capture Kit (GE Healthcare, BR-1008-39) and the Mouse Antibody Capture Kit (GE Healthcare, BR-1008-38), respectively. The sensor chip surface was activated with a freshly prepared solution of 0.2 M EDC and 0.05 M NHS passed over the chip surface for 420 s at a flow rate of 10 μl/min, followed by an injection of anti-hIgG or anti-mIgG capture antibody (dissolved to 25 μg/ml in immobilization buffer) for 180 s at a flow rate of […]. Excess of activated groups were blocked with a 1 molar solution of ethanolamine injected at a flow rate of 10 μl/min for 420 s.
(§2) CEACAM antigens were used as analyte to determine KD values. Antibodies were captured for 20 s at a flow rate of 10 μl/min prior to each analyte injection.
(§3) Obtained sensorgrams were double-referenced, i.e. in-line reference cell correction followed by buffer sample subtraction.

[3] = target: T3, Macaca fascicularis CEACAM6, extracellular (mature form), obtained by Factor Xa cleavage of TPP-2443 (Macaca fascicularis); experiment: SPR, antibody captured, antigen as analyte
T3 construct: used biotinylated in some assays; also called APP-319; Cynomolgus CEACAM6
T3 chain: T1 chain
Description: as §1, §2, §3

[4] = target: T4, human CEACAM3, extracellular (mature form), Sino Biological Inc. 11933-H08H (human, UniProt P40198 35-155); experiment: SPR, antibody captured, antigen as analyte
T4 construct: used biotinylated in some assays; also called TPP-2755
T4 sequence: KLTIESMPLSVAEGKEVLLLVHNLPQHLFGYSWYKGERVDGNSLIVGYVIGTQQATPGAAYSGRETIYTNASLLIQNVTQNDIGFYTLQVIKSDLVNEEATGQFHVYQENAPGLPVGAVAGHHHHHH
Description: as §1, §2, §3

[5] = target: T5, Human CEACAM6-Domain 1-His (expressed in E. coli), wild-type (human); experiment: SPR, antibody captured, antigen as analyte
T5 construct: entry includes the His tag; also called hDOM1
T5 chain: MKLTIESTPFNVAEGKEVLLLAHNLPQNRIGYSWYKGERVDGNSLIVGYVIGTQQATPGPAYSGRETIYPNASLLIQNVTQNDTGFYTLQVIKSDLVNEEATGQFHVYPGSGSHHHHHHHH
Description: as §1, §2

[6] = target: T6, Macaca fascicularis CEACAM6-Domain 1-His (expressed in E. coli) (Macaca fascicularis); experiment: SPR, antibody captured, antigen as analyte
T6 construct: entry includes the His tag; also called TPP-2453; Recombinant single domain 1 of Macaca fascicularis CEACAM6
T6 chain: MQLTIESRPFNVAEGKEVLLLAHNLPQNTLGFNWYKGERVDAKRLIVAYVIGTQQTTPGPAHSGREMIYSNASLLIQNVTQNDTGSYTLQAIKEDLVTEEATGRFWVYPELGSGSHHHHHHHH
Description: as §1, §2

- EC50 [1]: 1 nM
- Kd [2]: 13 nM
- Kd [3]: 27 nM
- binding result [4]: no binding (tested: 200 nM)
- Kd [5]: 3.7 nM
- Kd [6]: 3.2 nM
B1: TPP-3714 (antibody, human IgG2, kappa)
heavy: QVTLRESGPALVKPTQTLTLTCTFSGFSLSTYGIGVGWIRQPPGKALEWLAHIWWNDNKYYSTSLKTRLTISKDTSKNQVVLTMTNMDPVDTATYYCARISLPYFDYWGQGTLVTVSSASTKGPSVFPLAPCSRSTSESTAALGCLVKDYFPEPVTVSWNSGALTSGVHTFPAVLQSSGLYSLSSVVTVPSSNFGTQTYTCNVDHKPSNTKVDKTVERKCCVECPPCPAPPVAGPSVFLFPPKPKDTLMISRTPEVTCVVVDVSHEDPEVQFNWYVDGVEVHNAKTKPREEQFNSTFRVVSVLTVVHQDWLNGKEYKCKVSNKGLPAPIEKTISKTKGQPREPQVYTLPPSREEMTKNQVSLTCLVKGFYPSDIAVEWESNGQPENNYKTTPPMLDSDGSFFLYSKLTVDKSRWQQGNVFSCSVMHEALHNHYTQKSLSLSPG
light: DIQLTQSPSFLSASVGDRVTITCKASQNVGTAVAWYQQKPGKAPKLLIYSASNRYTGVPSRFSGSGSGTEFTLTISSLQPEDFATYYCQQYSSYPLTFGGGTKVEIKRTVAAPSVFIFPPSDEQLKSGTASVVCLLNNFYPREAKVQWKVDNALQSGNSQESVTEQDSKDSTYSLSSTLTLSKADYEKHKVYACEVTHQGLSSPVTKSFNRGEC
notes: humanized from TPP-2971, human IgG2; also called TPP-2971HU2-hIgG2Kappa
